One block for each binder: values may come before it.
Assays:
[1] = biological target: T1, TNF (recombinant human protein) (human, UniProt P01375 77-233); assay: ELISA, recombinant human protein coated, nanobody-Fc titrated, anti-human IgG HRP
T1 construct: Recombinant human protein immobilized at 5 ug/mL for ELISA
Experimental: (§1) Recombinant human protein was diluted in PBS to a final concentration of 5 μg/mL and was immobilized on 96-well flat bottom MaxiSorp plates (Thermo Fisher Scientific) and placed at 4° C. overnight. Plates were washed three times with 225 μL ELISA wash buffer (PBS with 0.05% Tween 20) and 200 μL ELISA blocking buffer (PBS with 1% Casein) was added to the well. Plates were incubated with shaking for 2 hours at room temperature. ELISA blocking buffer was removed from the wells and appropriate dilutions of recombinant nanobodies in 100 μL ELISA blocking buffer was added to each well. Plates were incubated with shaking for 2 hours at room temperature. Plates were washed 3 times with 225 μL ELISA wash buffer and 1:5000 goat anti-human IgG HRP (Millipore Sigma) in 100 μL ELISA blocking buffer was added to the wells. Plates were incubated with shaking for 1 hour at room temperature. Plates were washed 6 times with 225 μL ELISA wash buffer. 50 μL TMB substrate (BD Biosciences) was added to the wells and plates were incubated for 15 minutes in the dark at room temperature. 50 μL 1 M sulfuric acid was added to the wells and absorbance at 450 nm was measured in a Synergy HTX Multi-Mode Microplate Reader (BioTek).

[2] = biological target: REAP Off-Targets; assay: REAP, nanobody-Fc on yeast-displayed human antigen library
[3] = biological target: T2, TIGIT (human, UniProt Q495A1 22-141); assay: ELISA, plate-coated recombinant human protein, nanobody-Fc
T2 construct: Recombinant human protein in ELISA
T2 sequence (looked up): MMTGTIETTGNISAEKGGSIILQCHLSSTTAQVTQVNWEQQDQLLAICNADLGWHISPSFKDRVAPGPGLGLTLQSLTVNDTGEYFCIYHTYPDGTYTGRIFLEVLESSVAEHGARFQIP
Experimental: as §1

[4] = biological target: T3, CD3D (human, UniProt P04234 22-105); assay: as above
T3 construct: Recombinant human protein in ELISA
Experimental: as §1

[5] = biological target: T4, IL13 (human, UniProt P35225 35-146, limits assumed); assay: as above
T4 construct: Recombinant human protein in ELISA
Experimental: as §1

[6] = biological target: T5, CEACAM4 (human, UniProt O75871 36-155, limits assumed); assay: as above
T5 construct: Recombinant human protein in ELISA
T5 sequence (looked up): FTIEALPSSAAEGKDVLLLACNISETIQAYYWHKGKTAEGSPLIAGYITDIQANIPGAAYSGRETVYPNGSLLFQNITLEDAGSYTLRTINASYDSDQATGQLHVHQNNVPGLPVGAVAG
Experimental: as §1

[7] = biological target: T6, TNFSF18 (recombinant human protein) (human, UniProt Q9UNG2 52-177, limits assumed); assay: ELISA, recombinant human protein coated, nanobody-Fc titrated, anti-human IgG HRP
T6 construct: Recombinant human protein immobilized at 5 ug/mL for ELISA
T6 sequence (looked up): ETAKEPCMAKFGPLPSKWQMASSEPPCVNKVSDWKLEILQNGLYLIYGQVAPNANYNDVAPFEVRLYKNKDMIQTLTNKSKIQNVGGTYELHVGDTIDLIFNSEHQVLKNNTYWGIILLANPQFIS
Experimental: as §1

[8] = biological target: T7, IL17A (human, UniProt Q16552 24-155); assay: ELISA, plate-coated recombinant human protein, nanobody-Fc
T7 construct: Recombinant human protein in ELISA and BLI
T7 sequence (looked up): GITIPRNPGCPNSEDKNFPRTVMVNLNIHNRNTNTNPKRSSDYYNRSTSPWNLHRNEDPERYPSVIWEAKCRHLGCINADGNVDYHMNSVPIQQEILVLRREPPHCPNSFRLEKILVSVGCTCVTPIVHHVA
Experimental: as §1

[9] = biological target: T7, IL17A; assay: BLI, AHC sensor, nanobody-Fc captured, antigen in solution
Text: Octet RED96 System (ForteBio) was used to perform kinetic measurement of nanobody binding to antigens. For Anti-Penta-His Biosensors (HIS1K), his-tagged recombinant human proteins were first immobilized onto the biosensors, and recombinant nanobodies fused with human IgG1 were applied to detect binding. For Anti-Human IgG Fc Capture Biosensors (AHC), recombinant nanobodies fused with human IgG1 were first loaded onto the biosensors, and probes were dipped in serial dilutions of recombinant human antigens.

[10] = biological target: T8, IL21 (human, UniProt Q9HBE4 32-162, limits assumed); assay: ELISA, plate-coated recombinant human protein, nanobody-Fc
T8 construct: Recombinant human protein in ELISA
Experimental: as §1

[11] = biological target: T9, CCL16 (human, UniProt O15467 24-120); assay: as above
T9 construct: Recombinant human protein in ELISA and BLI
T9 sequence (looked up): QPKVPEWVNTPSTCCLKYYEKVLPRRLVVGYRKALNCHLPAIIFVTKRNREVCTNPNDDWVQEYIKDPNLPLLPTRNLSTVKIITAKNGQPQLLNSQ
Experimental: as §1

[12] = biological target: T10, IL1RN (human, UniProt P18510 26-177); assay: as above
T10 construct: Recombinant human protein in ELISA and BLI
Experimental: as §1

T3 sequence (P04234 22-105 limits assumed): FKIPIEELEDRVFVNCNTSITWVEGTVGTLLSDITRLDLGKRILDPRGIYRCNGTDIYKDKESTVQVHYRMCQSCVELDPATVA
T8 sequence (Q9HBE4 32-162 limits assumed): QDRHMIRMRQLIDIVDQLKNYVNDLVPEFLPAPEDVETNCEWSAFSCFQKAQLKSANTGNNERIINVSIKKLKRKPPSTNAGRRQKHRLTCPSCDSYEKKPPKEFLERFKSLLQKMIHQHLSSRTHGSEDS
T1 sequence (P01375 77-233 limits assumed): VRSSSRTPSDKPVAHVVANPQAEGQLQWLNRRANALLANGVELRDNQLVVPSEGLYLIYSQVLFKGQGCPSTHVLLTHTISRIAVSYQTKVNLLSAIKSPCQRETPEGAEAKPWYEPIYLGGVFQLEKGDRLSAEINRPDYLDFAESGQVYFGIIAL
T4 sequence (P35225 35-146 limits assumed): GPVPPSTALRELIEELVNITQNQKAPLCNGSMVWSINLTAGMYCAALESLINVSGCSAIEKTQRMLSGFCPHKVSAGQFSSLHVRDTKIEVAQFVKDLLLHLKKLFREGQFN
T10 sequence (P18510 26-177 limits assumed): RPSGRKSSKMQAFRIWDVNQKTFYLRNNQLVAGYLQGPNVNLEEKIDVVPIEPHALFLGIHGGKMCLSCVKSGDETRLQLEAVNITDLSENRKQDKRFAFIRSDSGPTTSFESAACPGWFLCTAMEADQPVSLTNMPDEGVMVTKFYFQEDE

B3: CD3D_Nb2.34 (Fc fusion)
chain: QVQLQESGGGLVQAGGSLRLSCAASGTISTLDYMGWYRQAPGKEREFVAAINYGSNTYYADSVKGRFTISRDNAKNTVYLQMNSLKPEDTAVYYCAAADVTRPAYDYWGQGTQVTVSS
notes: Nanobody expressed and tested as Fc fusion (human IgG1); not shown: human IgG1 Fc (vector pCER243)
EC50 [4]: 0.575 nM

B4: CD3D_Nb2.36 (Fc fusion)
chain: QVQLQESGGGLVQAGGSLRLSCAASGSISAYWAMGWYRQAPGKEREFVAAINFGANTYYADSVKGRFTISRDNAKNTVYLQMNSLKPEDTAVYYCAAERDGDYHDYWGQGTQVTVSS
notes: as for B3
EC50 [4]: 29.6 nM

B6: CD3D_Nb2.35 (Fc fusion)
chain: QVQLQESGGGLVQAGGSLRLSCAASGTIFAYWYMGWYRQAPGKEREFVAAIGDGSSTYYADSVKGRFTISRDNAKNTVYLQMNSLKPEDTAVYYCAAEAPGYGHTYWGQGTQVTVSS
notes: as for B3
EC50 [4]: 1.72 nM

B7: IL13_Nb2.42 (Fc fusion)
chain: QVQLQESGGGLVQAGGSLRLSCAASGTISATDFMGWYRQAPGKERELVAAINHGGSTYYADSVKGRFTISRDNAKNTVYLQMNSLKPEDTAVYYCAAARDDYPWHDYWGQGTQVTVSS
notes: as for B3
EC50 [5]: 38.4 nM

B8: CEACAM4_Nb36 (Fc fusion)
chain: QVQLQESGGGLVQAGGSLRLSCAASGNIFLGPYMGWYRQAPGKEREFVASINYGASTNYADSVKGRFTISRDNAKNTVYLQMNSLKPEDTAVYYCAAGYYSNDYYYYEYSYWGQGTQVTVSS
notes: as for B3
EC50 [6]: 15.6 nM

B10: CD3D_Nb2.33 (Fc fusion)
chain: QVQLQESGGGLVQAGGSLRLSCAASGSIFYAEYMGWYRQAPGKEREFVAAITAGSTTYYADSVKGRFTISRDNAKNTVYLQMNSLKPEDTAVYYCAADGYYYGIEFTYYEYWGQGTQVTVSS
notes: as for B3
EC50 [4]: 8.22 nM

B11: IL13_Nb2.41 (Fc fusion)
chain: QVQLQESGGGLVQAGGSLRLSCAASGTIFVDEFMGWYRQAPGKEREFVASINDGGSTYYADSVKGRFTISRDNAKNTVYLQMNSLKPEDTAVYYCAVFEPSPDGDPFGDRAWFWYWGQGTQVTVSS
notes: as for B3
EC50 [5]: 1.02 nM

B16: CEACAM4_Nb40 (Fc fusion)
chain: QVQLQESGGGLVQAGGSLRLSCAASGTISPGYGMGWYRQAPGKEREFVATIAFGSSTYYADSVKGRFTISRDNAKNTVYLQMNSLKPEDTAVYYCAVAIYIPYFFRYWGQGTQVTVSS
notes: as for B3
EC50 [6]: 14.5 nM

B18: CEACAM4_Nb41 (Fc fusion)
chain: QVQLQESGGGLVQAGGSLRLSCAASGTISRSSIMGWYRQAPGKEREFVAGISYGSTTYYADSVKGRFTISRDNAKNTVYLQMNSLKPEDTAVYYCAVRDLYVWDHAYWGQGTQVTVSS
notes: as for B3
EC50 [6]: 32.7 nM

B21: CCL16_Nb2.5 (Fc fusion)
chain: QVQLQESGGGLVQAGGSLRLSCAASGYIFGVYDMGWYRQAPGKERELVATISAGGTTNYADSVKGRFTISRDNAKNTVYLQMNSLKPEDTAVYYCAAYTDYSPYDGAALVYWGQGTQVTVSS
notes: as for B3
EC50 [11]: 1.78 nM

B22: IL1RN_Nb75 (Fc fusion)
chain: QVQLQESGGGLVQAGGSLRLSCAASGNIFRYDNMGWYRQAPGKEREFVATITYGSNTYYADSVKGRFTISRDNAKNTVYLQMNSLKPEDTAVYYCAAYFPYRSYDNSADTSSHSYWGQGTQVTVSS
notes: as for B3
EC50 [12]: 6.9 nM

The next lines start with the values.

EC50 [1]: 23.8 nM
REAP Off-Targets (number) [2]: 7 off-targets
B1: TNF_Nb109 (Fc fusion)
chain: QVQLQESGGGLVQAGGSLRLSCAASGYISGEWFMGWYRQAPGKERELVAGISRGSTTYYADSVKGRFTISRDNAKNTVYLQMNSLKPEDTAVYYCAVYLTHKGYDGADGVVHHRYWGQGTQVTVSS
notes: Nanobody expressed as an Fc fusion protein (fused with human IgG1) in Expi293 cells; not shown: human IgG1 Fc; nanobodies expressed as Fc fusion from vector pCER243

EC50 [3]: 12.8 nM
B2: TIGIT_Nb2.82 (Fc fusion)
chain: QVQLQESGGGLVQAGGSLRLSCAASGTISVVQDMGWYRQAPGKERELVAGIAKGGNTYYADSVKGRFTISRDNAKNTVYLQMNSLKPEDTAVYYCAASPIPFSYAYPAYHYWGQGTQVTVSS
notes: as for B3

EC50 [3]: 483 nM
B5: TIGIT_Nb2.84 (Fc fusion)
chain: QVQLQESGGGLVQAGGSLRLSCAASGNISYVRWMGWYRQAPGKERELVAGIGVGGITNYADSVKGRFTISRDNAKNTVYLQMNSLKPEDTAVYYCAATDVDWILYRYWGQGTQVTVSS
notes: as for B3

EC50 [7]: 6.05 nM
REAP Off-Targets (number) [2]: 4 off-targets
B9: TNFSF18_Nb98 (Fc fusion)
chain: QVQLQESGGGLVQAGGSLRLSCAASGSIFYVIAMGWYRQAPGKERELVATITAGTNTYYADSVKGRFTISRDNAKNTVYLQMNSLKPEDTAVYYCAVYALQQDVYDRSHAYWGQGTQVTVSS
notes: as for B1

EC50 [3]: 29.8 nM
B12: TIGIT_Nb2.81 (Fc fusion)
chain: QVQLQESGGGLVQAGGSLRLSCAASGTISLLEYMGWYRQAPGKEREFVAAITGGSSTNYADSVKGRFTISRDNAKNTVYLQMNSLKPEDTAVYYCAASLVPYDKDNLFFGYWGQGTQVTVSS
notes: as for B3

EC50 [1]: 5.57 nM
REAP Off-Targets (number) [2]: 2 off-targets
B13: TNF_Nb105 (Fc fusion)
chain: QVQLQESGGGLVQAGGSLRLSCAASGTISVTYFMGWYRQAPGKERELVAGIGTGANTYYADSVKGRFTISRDNAKNTVYLQMNSLKPEDTAVYYCAAYIGAPVYGDGQSRNKAKVYDYWGQGTQVTVSS
notes: as for B1

EC50 [8]: 0.249 nM
Kd [9]: 0.977 nM
B14: IL17A_Nb2.90 (Fc fusion)
chain: QVQLQESGGGLVQAGGSLRLSCAASGYISLRFYMGWYRQAPGKEREFVATIDDGSSTYYADSVKGRFTISRDNAKNTVYLQMNSLKPEDTAVYYCAVTAQTYYDHVYWGQGTQVTVSS
notes: as for B3

EC50 [10]: 3.73 nM
B15: IL21 Nb2.29 (Fc fusion)
chain: QVQLQESGGGLVQAGGSLRLSCAASGNISWGTIMGWYRQAPGKEREFVAAISHGANTNYADSVKGRFTISRDNAKNTVYLQMNSLKPEDTAVYYCAAQSRAGSTRPRYHKYWGQGTQVTVSS
notes: as for B3

EC50 [8]: 0.179 nM
Kd [9]: 0.656 nM
B17: IL17A_Nb2.92 (Fc fusion)
chain: QVQLQESGGGLVQAGGSLRLSCAASGTISQGDYMGWYRQAPGKEREFVASIAIGTITYYADSVKGRFTISRDNAKNTVYLQMNSLKPEDTAVYYCAVSVQFSYDFYYWGQGTQVTVSS
notes: as for B3

EC50 [10]: 7.16 nM
B19: IL21_Nb2.30 (Fc fusion)
chain: QVQLQESGGGLVQAGGSLRLSCAASGTIFRETVMGWYRQAPGKERELVAAIDDGTSTYYADSVKGRFTISRDNAKNTVYLQMNSLKPEDTAVYYCAARASYTYGRLRFRYWGQGTQVTVSS
notes: as for B3

EC50 [10]: 3.14 nM
B20: IL21_Nb2.28 (Fc fusion)
chain: QVQLQESGGGLVQAGGSLRLSCAASGSISNTYVMGWYRQAPGKERELVAAIGHGGTTYYADSVKGRFTISRDNAKNTVYLQMNSLKPEDTAVYYCAVYLSRVRKFYYWGQGTQVTVSS
notes: as for B3

Source: patent US20230416942A1 (YALE UNIVERSITY, published 2023)
